Laboratory results published in publication PMC10866649.

Legend:
[1] = target: T1, Human dendritic cell–specific ICAM-3–grabbing non-integrin (DC-SIGN; CD209), Q9NNX6; test: flow cytometry on cells (hDC-SIGN+/SIGN-R1-/- murine BMDMs); details: type I FcγRs blocked; PBS control = 1; read off a plot
T1 chain: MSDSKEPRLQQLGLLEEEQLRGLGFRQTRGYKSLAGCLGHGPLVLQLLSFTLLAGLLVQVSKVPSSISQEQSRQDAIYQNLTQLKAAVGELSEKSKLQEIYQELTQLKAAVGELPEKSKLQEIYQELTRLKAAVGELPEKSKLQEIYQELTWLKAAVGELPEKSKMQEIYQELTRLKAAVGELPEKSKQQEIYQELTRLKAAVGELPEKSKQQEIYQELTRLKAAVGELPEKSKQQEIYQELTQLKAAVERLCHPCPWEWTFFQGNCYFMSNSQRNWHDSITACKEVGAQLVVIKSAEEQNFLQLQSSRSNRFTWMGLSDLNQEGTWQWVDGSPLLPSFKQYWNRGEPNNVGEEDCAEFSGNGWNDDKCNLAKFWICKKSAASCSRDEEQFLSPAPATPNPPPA

[2] = target: Human neonatal Fc receptor (hFcRn), P55899; test: SPR; biolayer interferometry (citing paragraph); details: chain shown with the change
Human neonatal Fc receptor (hFcRn), P55899, sequence (P55899 24-297, chain 1 of 2): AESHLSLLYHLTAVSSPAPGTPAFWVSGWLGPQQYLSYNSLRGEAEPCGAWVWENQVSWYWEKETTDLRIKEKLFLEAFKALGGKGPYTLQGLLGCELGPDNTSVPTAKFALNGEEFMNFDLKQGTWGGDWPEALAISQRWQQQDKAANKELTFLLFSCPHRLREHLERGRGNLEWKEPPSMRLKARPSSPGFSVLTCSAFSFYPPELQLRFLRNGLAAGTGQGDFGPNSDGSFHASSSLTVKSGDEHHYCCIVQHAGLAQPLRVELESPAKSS
Human neonatal Fc receptor (hFcRn), P55899, sequence (chain, as listed by the source, chain 2 of 2): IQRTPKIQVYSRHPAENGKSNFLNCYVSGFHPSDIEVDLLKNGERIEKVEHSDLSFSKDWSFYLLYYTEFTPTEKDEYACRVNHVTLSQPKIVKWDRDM

B1: Wild-type human IgG1 Fc (Fc^WT) M252Y; S254T; T256E; H433K; N434F (protein)
chain: DKTHTCPPCPAPELLGGPSVFLFPPKPKDTLYITREPEVTCVVVDVSHEDPEVKFNWYVDGVEVHNAKTKPREEQYNSTYRVVSVLTVLHQDWLNGKEYKCKVSNKALPAPIEKTISKAKGQPREPQVYTLPPSRDELTKNQVSLTCLVKGFYPSDIAVEWESNGQPENNYKTTPPVLDSDGSFFLYSKLTVDKSRWQQGNVFSCSVMHEALKFHYTQKSLSLSPGK
**Q.** For B1, which response (fold change in MFI (normalized to PBS)) [1] is on record?
**A.** 1.4

**Q.** What about the Kd [2] of the same binder?
**A.** 5.2 nM
